Reference: patent US20060177932A1 (published 2006)

Molecular target: the molecule itself
Assay: not described (homodimerisation stated in Example 7)

B1: STAT5A 1*7 (other)
chain: MAGWIQAQQLQGDALRQMQVLYGQHFPIEVRHYLAQWIESQPWDAIDLDNPQDRGQATQLLEGLVQELQKKAEHQVGEDGFLLKIKLGHYATQLQNTYDRCPMELVRCIRHILYNEQRLVREANNCSSPAGVLVDAMSQKHLQINQRFEGLRLITQDTENELKKLQQTQEYFIIQYQESLRIQAQFAQLGQLNPQERMSRETALQQKQVSLETWLQREAQTLQQYRVELAEKHQKTLQLLRKQQTIILDDELIQWKRRQQLAGNGGPPEGSLDVLQSWCEKLAEIIWQNRQQIRRAEHLCQQLPIPGPVEEMLAEVNATITDIISALVTSTFIIEKQPPQVLKTQTKFAATVRLLVGGKLNVHMNPPQVKATIISEQQAKSLLKNENTRNECSGEILNNCCVMEYHQATGTLSAHFRNMSLKRIKRADRRGAESVTEEKFTVLFESQFSVGSNELVFQVKTLSLPVVVIVHGSQDHNATATVLWDNAFAEPGRVPFAVPDKVLWPQLCEALNMKFKAEVQSNRGLTKENLVFLAQKLFNISSNHLEDYNSMSVSWSQFNRENLPGWNYTFWQWFDGVMEVLKKHHKPHWNDGAILGFVNKQQAHDLLINKPDGTFLLRFSDSEIGGITIAWKFDSPDRNLWNLKPFTTRDFSIRSLADRLGDLNYLIYVFPDRPKDEVFAKYYTPVLAKAVDGYVKPQIKQVVPEFVNAFTDAGASATYMDQAPSPVVCPQPHYNMYPPNPDPVLDQDGEFDLDESMDVARHVEELLRRPMDSLDARLSPPAGLFTSARSSLS
notes: Expressed from the retrovirus vector GCsam-IRES-EGFP; also called STAT5 1*7; active STAT5 variant
Q: Does B1 bind?
A: Result: binds
